Results: paper PMC12759081, “S-phase PARylation of microprotein RSMC enhances the function of Sororin in sister chromatid cohesion” (The EMBO Journal, 2025)

Experiments:
Conditions in all cases: both partners purified
[1] = molecular target: T1, 6×His-3×Flag-PDS5B, Cy5-labelled (UniProt Q9NTI5 1-1447, Cy5 label); assay: MST; competitive: 34 nM Cy5-PDS5B and Wapl dilutions combined 10 min at RT, then 17 nM Sororin added; 25 °C, 50 mM Tris pH 7.4, 150 mM NaCl, 10% glycerol, 0.05% Tween-20
T1 construct: PDS5B, cDNA in pFastBac1; primers run from the start codon to the stop codon; also called His-Flag-PDS5B; Cy5-labeled PDS5B; source: SF9 cells (baculovirus), purified (Ni2+ Sepharose); not shown: His6, N-terminal, kept; 3×Flag, N-terminal, kept
T1 sequence (looked up): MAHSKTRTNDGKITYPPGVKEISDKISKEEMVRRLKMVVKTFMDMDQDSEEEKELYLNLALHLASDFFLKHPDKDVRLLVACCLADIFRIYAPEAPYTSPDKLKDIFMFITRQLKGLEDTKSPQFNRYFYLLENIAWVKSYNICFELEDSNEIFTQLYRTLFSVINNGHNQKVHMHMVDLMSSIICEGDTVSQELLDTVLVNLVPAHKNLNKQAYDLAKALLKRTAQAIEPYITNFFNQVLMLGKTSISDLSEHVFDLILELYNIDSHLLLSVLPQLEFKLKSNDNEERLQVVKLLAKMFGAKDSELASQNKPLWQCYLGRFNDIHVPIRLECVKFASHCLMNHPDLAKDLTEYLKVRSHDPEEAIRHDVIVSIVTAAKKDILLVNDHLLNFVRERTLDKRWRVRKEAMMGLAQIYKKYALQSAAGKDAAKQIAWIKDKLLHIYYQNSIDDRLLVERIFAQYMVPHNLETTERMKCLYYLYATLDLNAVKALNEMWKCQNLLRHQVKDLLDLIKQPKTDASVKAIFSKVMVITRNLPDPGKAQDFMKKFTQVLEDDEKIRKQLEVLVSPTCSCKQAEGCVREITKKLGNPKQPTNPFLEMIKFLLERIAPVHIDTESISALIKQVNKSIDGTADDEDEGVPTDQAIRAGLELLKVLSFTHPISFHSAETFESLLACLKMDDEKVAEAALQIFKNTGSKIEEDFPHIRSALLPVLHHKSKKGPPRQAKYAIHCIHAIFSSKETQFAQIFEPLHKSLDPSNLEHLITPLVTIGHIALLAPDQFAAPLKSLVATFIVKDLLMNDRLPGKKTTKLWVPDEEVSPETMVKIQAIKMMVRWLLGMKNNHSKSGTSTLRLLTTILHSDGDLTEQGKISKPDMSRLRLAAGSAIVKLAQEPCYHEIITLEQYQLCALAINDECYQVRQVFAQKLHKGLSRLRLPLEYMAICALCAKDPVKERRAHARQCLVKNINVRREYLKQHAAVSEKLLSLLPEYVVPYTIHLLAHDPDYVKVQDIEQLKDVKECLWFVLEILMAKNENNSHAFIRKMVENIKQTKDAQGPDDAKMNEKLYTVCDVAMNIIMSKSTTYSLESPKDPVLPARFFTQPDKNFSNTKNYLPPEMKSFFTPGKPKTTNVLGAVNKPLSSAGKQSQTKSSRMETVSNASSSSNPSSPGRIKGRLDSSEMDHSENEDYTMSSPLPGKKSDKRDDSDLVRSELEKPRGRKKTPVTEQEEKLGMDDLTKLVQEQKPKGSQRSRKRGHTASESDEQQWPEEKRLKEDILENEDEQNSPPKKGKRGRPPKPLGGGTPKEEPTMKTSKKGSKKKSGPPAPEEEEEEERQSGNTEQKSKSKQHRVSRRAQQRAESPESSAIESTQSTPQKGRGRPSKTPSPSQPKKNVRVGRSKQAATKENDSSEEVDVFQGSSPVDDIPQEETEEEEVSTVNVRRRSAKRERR

[2] = molecular target: T1, 6×His-3×Flag-PDS5B, Cy5-labelled; assay: MST; competitive: 34 nM Cy5-PDS5B and Wapl dilutions combined 10 min at RT, then Sororin and RSMC added (17 nM each, 1:1 molar ratio); 25 °C, 50 mM Tris pH 7.4, 150 mM NaCl, 10% glycerol, 0.05% Tween-20
[3] = molecular target: T1, 6×His-3×Flag-PDS5B, Cy5-labelled; assay: MST; Cy5-labelled PDS5B at 34 nM, partner in twofold dilutions; 25 °C, 50 mM Tris pH 7.4, 150 mM NaCl, 10% glycerol, 0.05% Tween-20; Monolith NT.115

Kd of Wapl-PDS5B with Sororin added [1]: 25.3 µM | Kd of Wapl-PDS5B with Sororin and RSMC added (1:1) [2]: 50.1 µM | Kd [3]: ~4.7 µM
B1: Wapl (natural protein, UniProt Q7Z5K2 1-1190, looked up)
chain: MTSRFGKTYSRKGGNGSSKFDEVFSNKRTTLSTKWGETTFMAKLGQKRPNFKPDIQEIPKKPKVEEESTGDPFGFDSDDESLPVSSKNLAQVKCSSYSESSEAAQLEEVTSVLEANSKISHVVVEDTVVSDKCFPLEDTLLGKEKSTNRIVEDDASISSCNKLITSDKVENFHEEHEKNSHHIHKNADDSTKKPNAETTVASEIKETNDTWNSQFGKRPESPSEISPIKGSVRTGLFEWDNDFEDIRSEDCILSLDSDPLLEMKDDDFKNRLENLNEAIEEDIVQSVLRPTNCRTYCRANKTKSSQGASNFDKLMDGTSQALAKANSESSKDGLNQAKKGGVSCGTSFRGTVGRTRDYTVLHPSCLSVCNVTIQDTMERSMDEFTASTPADLGEAGRLRKKADIATSKTTTRFRPSNTKSKKDVKLEFFGFEDHETGGDEGGSGSSNYKIKYFGFDDLSESEDDEDDDCQVERKTSKKRTKTAPSPSLQPPPESNDNSQDSQSGTNNAENLDFTEDLPGVPESVKKPINKQGDKSKENTRKIFSGPKRSPTKAVYNARHWNHPDSEELPGPPVVKPQSVTVRLSSKEPNQKDDGVFKAPAPPSKVIKTVTIPTQPYQDIVTALKCRREDKELYTVVQHVKHFNDVVEFGENQEFTDDIEYLLSGLKSTQPLNTRCLSVISLATKCAMPSFRMHLRAHGMVAMVFKTLDDSQHHQNLSLCTAALMYILSRDRLNMDLDRASLDLMIRLLELEQDASSAKLLNEKDMNKIKEKIRRLCETVHNKHLDLENITTGHLAMETLLSLTSKRAGDWFKEELRLLGGLDHIVDKVKECVDHLSRDEDEEKLVASLWGAERCLRVLESVTVHNPENQSYLIAYKDSQLIVSSAKALQHCEELIQQYNRAEDSICLADSKPLPHQNVTNHVGKAVEDCMRAIIGVLLNLTNDNEWGSTKTGEQDGLIGTALNCVLQVPKYLPQEQRFDIRVLGLGLLINLVEYSARNRHCLVNMETSCSFDSSICSGEGDDSLRIGGQVHAVQALVQLFLERERAAQLAESKTDELIKDAPTTQHDKSGEWQETSGEIQWVSTEKTDGTEEKHKKEEEDEELDLNKALQHAGKHMEDCIVASYTALLLGCLCQESPINVTTVREYLPEGDFSIMTEMLKKFLSFMNLTCAVGTTGQKSISRVIEYLEHC
notes: Wapl, cohesin-releasing factor; primers run from the start codon to the stop codon
